# According to patent US20140364335A1, “METHOD FOR SCREENING FOR NRF1 REGULATOR” (Mochida Pharmaceutical Co., Ltd., priority 2012, published 2014):
# Where a SMILES comes first, the peptide text is derived from it. The star is where a group is joined. Cbz = O=C(OCc1ccccc1)*
# Assays:
# [1] = test system: CNC-bZip domain-deficient mouse Nrf1 and luciferase fusion protein (mNrf1ΔCNC-bZip-Luc); assay: Luciferase activity in Hepa1 cell line stably expressing CNC-bZip domain-deficient mouse Nrf1-luciferase fusion protein; type: cell-based; conditions: mNrf1ΔCNC-bZip-Luc stable Hepa1 cell lines, 10 μM MG-132, 4 hours, vs DMSO
# Protocol: (§1) Cloning of mouse Nrf1 cDNA was performed using a method known in the art (Zhang et al., Biochem. J. 399: 373-385. (2006)). An expression vector of full-length mouse Nrf1 and luciferase fusion protein (mNrf1-Luc) was prepared by ligating the sequence, which was amplified by the following primers: 5′-TAATACGACTCACTATAGGG-3′ (SEQ ID NO: 21) and 5′-CTTTATGTTTTTGGCGTCTTCCTTCCTCCGGTCCTTTG-3′ (SEQ ID NO: 22) using mouse Nrf1 cDNA sequence as a template, and the sequence, which was amplified by the following primers: 5′-CAAAGGACCGGAGGAAGGAAGACGCCAAAAACATAAAG-3′ (SEQ ID NO: 23) and 5′-GACTCTAGAATTACACGGCG-3′ (SEQ ID NO: 24) using pGL3-basic vector (Promega) as a template; and cloning the resulting sequence at a KpnI/XbaI site of pcDNA3.1/V5His B plasmid (Invitrogen). […]
# (§2) Cells of each cell line were seeded at a density of 5×10^4 cells per well in a 24-well plate, cultured overnight and treated with a solvent control, DMSO or 10 μM MG-132 (Peptide Institute) for 4 hours. Thereafter, the firefly luciferase activity was measured using dual luciferase kit (Promega) and a luminometer (Berthold).
# [2] = test system: full-length mouse Nrf1 and luciferase fusion protein (mNrf1-Luc); assay: Luciferase activity in Hepa1 cell line stably expressing mouse Nrf1-luciferase fusion protein (Nrf1 stabilization assay); type: cell-based; conditions: mNrf1-Luc stable Hepa1 cell lines, 10 μM MG-132, 4 hours, vs DMSO
# Protocol: as §1, §2
# MafG 1-123 homodimer = MafG 1-123 homodimer (UniProt O54790 O54790:1-123); assay: EMSA; MafG homodimer; MARE-like site; conditions: tags: 6xHis; E. coli; chain copies: 2 (stated); label: 5' biotin (EMSA)
# Protocol: (§3) (A to C) Hepa1 cells were cotransfected with luciferase reporter constructs containing the AREs from the Lipin1 promoter (A), Lipin1 intron (B) or PGC-1β intron (C) together with or without the Nrf1 expression vector. The average values±S.D are shown, n=3. The vertical axis indicates relative luciferase units (RLU). The firefly luciferase activity in the absence of effector plasmids is set to 1. (D) The EMSA analysis was performed with biotin-labeled probes containing the AREs from the Nqo1 promoter, Lipin1 promoter, Lipin1 intron and PGC-1β intron regions. Recombinant MafG and/or Nrf1 or Nrf2 proteins were incubated with the probes, and the protein-DNA complexes and free probes were resolved by electrophoresis. (E) The sequences of the wild-type (W) and mutant (M) oligonucleotides are shown. The mutation sites of the sequences are underlined. (F) Nrf2 and MafG proteins were incubated in combination in the presence or absence of a 200-fold molar excess of unlabeled competitor DNA. The open arrowheads indicate Nrf1/MafG heterodimer complexes, the solid arrowheads indicate Nrf2-MafG heterodimer complexes and the arrows indicate MafG homodimer complexes.
# (§4) EMSA was performed in accordance with a method known in the art. […]
# [3] = target: T1, Nrf1 CT (G341-K741)/MafG 1-123 heterodimer (Mus musculus, UniProt Q61985;O54790 Q61985:341-741,O54790:1-123); assay: EMSA; room temperature 20 min; probe boundaries in FIG. 6E may differ from the reporter insert; conditions: tags: 6xHis on each; E. coli; label: 5' biotin (EMSA)
# Protocol: as §3, §4
# [4] = target: T1, Nrf1 CT (G341-K741)/MafG 1-123 …; assay: EMSA; slightly weaker than for Nqo1 ARE; room temperature 20 min; probe boundaries in FIG. 6E may differ from the reporter insert; conditions: tags: 6xHis on each; E. coli; label: 5' biotin (EMSA)
# Protocol: as §3, §4
# T1 sequence (Q61985 341-741, chain 1 of 2): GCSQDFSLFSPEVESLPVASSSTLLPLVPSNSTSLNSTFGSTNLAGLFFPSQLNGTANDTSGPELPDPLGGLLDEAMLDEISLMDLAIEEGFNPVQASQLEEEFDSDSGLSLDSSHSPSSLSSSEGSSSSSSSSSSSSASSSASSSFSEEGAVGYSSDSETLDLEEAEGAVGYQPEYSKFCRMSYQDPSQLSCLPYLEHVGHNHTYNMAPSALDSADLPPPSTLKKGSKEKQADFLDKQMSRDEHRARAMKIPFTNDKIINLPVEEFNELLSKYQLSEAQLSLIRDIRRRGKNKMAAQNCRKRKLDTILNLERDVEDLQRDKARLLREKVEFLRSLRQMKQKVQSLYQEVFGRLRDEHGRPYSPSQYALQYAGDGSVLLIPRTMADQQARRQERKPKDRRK
# T1 sequence (O54790 1-123, chain 2 of 2): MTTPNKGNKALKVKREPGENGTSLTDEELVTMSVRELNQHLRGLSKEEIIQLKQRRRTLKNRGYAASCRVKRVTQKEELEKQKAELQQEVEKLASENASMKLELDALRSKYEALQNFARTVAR
# Chain of MafG 1-123 homodimer (O54790 1-123, one chain of several): as the sequence (O54790 1-123, chain 2 of 2) above
Molecule,luciferase activity compared to solvent [1],luciferase activity compared to solvent [2],binding result (MafG 1-123 homodimer),binding result [3],binding result [4]
CC(C)C[C@@H](C=O)NC(=O)[C@H](CC(C)C)NC(=O)[C@H](CC(C)C)NC(=O)OCc1ccccc1 [MG-132] (Cbz-Leu-Leu-Leu-aldehyde),drastic increase of luciferase activity,drastic increase of luciferase activity,,,
Lipin1 intron ARE (dsDNA) DNA 1: CACACCCTGCCCAGAGGCACACTTGCTGAGTCAGCACCCCGG DNA 2: CCGGGGTGCTGACTCAGCAAGTGTGCCTCTGGGCAGGGTGTG,,,binds,binds,
PGC-1beta intron ARE (dsDNA) DNA 1: TTGATAGTGAGGGGAACATGCTGACTCAGCAGCTCCGAATAA DNA 2: TTATTCGGAGCTGCTGAGTCAGCATGTTCCCCTCACTATCAA,,,binds,binds,
Lipin1 promoter ARE (dsDNA) DNA 1: ACGCTCCTGCCGCTGAGCTGTGACTCAGCCAGAGAACTGAG DNA 2: CTCAGTTCTCTGGCTGAGTCACAGCTCAGCGGCAGGAGCGT,,,,,binds
